Assay results from the supplement of paper PMC10567573.

B1: CHCHD3 (parent)
chain: YSGAYGASVSDEELKRRVAEELAL

Variants of: B1
Assay: protein stability index of a GFP-peptide fusion (GPS, HEK-293T) (PSI 1-6); higher = more stable
Details: c terminus: a fixed tail appended
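Further: lentivirally expressed fusions sorted by FACS into six bins by GFP to DsRed ratio, PSI derived from sequencing read proportions per bin multiplied by bin number.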

Variant | protein stability index
YSGAYGASVSDEELKRRVAEWLAL | 2.62
YSGAYGASVSDEELKRRVAEMLAL | 3.14
YSGAYGASVSDEELKRRVAECLAL | 3.9
YSGAYGASVSDEELKRRVAEVLAL | 2.19
YSGAYGASVSDEELKRRVAEHLAL | 2.44
YSGAYGASVSDEELKRRVAERLAL | 2.89
YSGAYGASVSDEELKRRVAEALAL | 2.94
YSGAYGASVSDERLKRRVAEELAL | 2.26
YSGAYGASVSDEMLKRRVAEELAL | 1.51
YSGAYGASVSDEPLKRRVAEELAL | 2.47
YSGAYGASVSDEHLKRRVAEELAL | 2.67
YSGAYGASVSDEKLKRRVAEELAL | 3.04
YSGAYGASVSDENLKRRVAEELAL | 2.44
YSYAYGASVSDEELKRRVAEELAL | 3.4
YSQAYGASVSDEELKRRVAEELAL | 3.96
YSRAYGASVSDEELKRRVAEELAL | 3.56
YSFAYGASVSDEELKRRVAEELAL | 3.05
YSGAYGASVSDIELKRRVAEELAL | 2.92
YSGAYGASVSDAELKRRVAEELAL | 2.29
YSGAYGASVSDKELKRRVAEELAL | 2.53
YSGAYGASVSDMELKRRVAEELAL | 2.39
YSGAYGASVSDLELKRRVAEELAL | 2.17
YSGAYWASVSDEELKRRVAEELAL | 1.64
YVGAYGASVSDEELKRRVAEELAL | 1.9

Variant | protein stability index
YRGAYGASVSDEELKRRVAEELAL | 4.62
YTGAYGASVSDEELKRRVAEELAL | 2.27
YKGAYGASVSDEELKRRVAEELAL | 4.35
YHGAYGASVSDEELKRRVAEELAL | 1.38
YPGAYGASVSDEELKRRVAEELAL | 3.22
YYGAYGASVSDEELKRRVAEELAL | 4.05
YSGAEGASVSDEELKRRVAEELAL | 5.32
YSGAHGASVSDEELKRRVAEELAL | 4.02
YSGASGASVSDEELKRRVAEELAL | 4.99
YSGALGASVSDEELKRRVAEELAL | 4.86
YSGAYGASVSDEELKRRVREELAL | 2.95
YSGAYGASVSDEELKRRVPEELAL | 3.04
YSGAYGASVSDEELKRRVGEELAL | 3.1
YSGAYGASVSDEELKRRVWEELAL | 2.69
YSGAYGASVSDEELKRRVTEELAL | 1.94
YSGAYGASVSDEELKRKVAEELAL | 2.31
YSGAYGWSVSDEELKRRVAEELAL | 1.39
YSGAYGGSVSDEELKRRVAEELAL | 3.43
YSGAYGSSVSDEELKRRVAEELAL | 3.48
YSGAYGRSVSDEELKRRVAEELAL | 2.77
YSGAYGKSVSDEELKRRVAEELAL | 2.38
YSGIYGASVSDEELKRRVAEELAL | 3.21
YSGCYGASVSDEELKRRVAEELAL | 2.64
YSGRYGASVSDEELKRRVAEELAL | 3.03

Variant | protein stability index
YSGFYGASVSDEELKRRVAEELAL | 1.95
YSGWYGASVSDEELKRRVAEELAL | 2.11
YSGAYGASTSDEELKRRVAEELAL | 2.19
YSGAYGASFSDEELKRRVAEELAL | 2.67
YSGAYGASQSDEELKRRVAEELAL | 3.18
YSGAYGASRSDEELKRRVAEELAL | 2.19
YSGAYGAHVSDEELKRRVAEELAL | 2.98
YSGAYGAVVSDEELKRRVAEELAL | 1.78
YSGAYGAIVSDEELKRRVAEELAL | 2.08
YSGAYGALVSDEELKRRVAEELAL | 1.42
YSGAYGACVSDEELKRRVAEELAL | 2.04
YSGAYGASVSDEELKRRVAAELAL | 2.19
YSGAYGASVSDEELKLRVAEELAL | 2.75
YSGAYGASVSDEELKPRVAEELAL | 2.55
YSGAYGASVSDEELKMRVAEELAL | 2.74
YSGAYGASVSDEELKRRSAEELAL | 2.42
YSGAYGASVSDEELKRRQAEELAL | 1.72
LSGAYGASVSDEELKRRVAEELAL | 4.87
DSGAYGASVSDEELKRRVAEELAL | 5.4
YSGAYGASVSIEELKRRVAEELAL | 2.29
YSGAYGASVSSEELKRRVAEELAL | 1.86
YSGAYGASVSDEELWRRVAEELAL | 2.04
YSGAYGASVSDEELPRRVAEELAL | 2.29
YSGAYGASVSDEELTRRVAEELAL | 2.22

Variant | protein stability index
YSGAYGASVSDEELDRRVAEELAL | 3.38
YSGAYGASVSDEELYRRVAEELAL | 2.72
YSGAYGASVSDEELLRRVAEELAL | 2.52
YSGAYGASVSDEELCRRVAEELAL | 3.2
YSGAYGASVSDEEDKRRVAEELAL | 3.3
YSGAYGASVSDEEMKRRVAEELAL | 2.19
YSGAYGASVSDEECKRRVAEELAL | 2.77
YSGAYGASVSDEELKRRVAEEPAL | 2.47
YSGAYGASVSDEELKRRVAEEAAL | 2.5
YSGAYGASVSDEELKRRVAEEEAL | 2.7
YSGAYGASVSDEELKRRVAEELAK | 2.87
YSGAYGASVSDEELKRRVAEELAM | 2.74
YSGAYGASVSDEELKRRVAEELAP | 2.27
YSGAYGASVSDEELKRRVAEELML | 2.65
YSGAYGASVSDEELKRRVAEELQL | 2.58
YSGAYGASVSDEELKRRVAEELTL | 3.13
YSGAYGASVSDEELKRRVAEELNL | 2.97
YSGAYGASVSDEELKRRVAEELFL | 2.97
YSGAYGASVGDEELKRRVAEELAL | 2.51
YSGAYGASVWDEELKRRVAEELAL | 1.89
YSGAYGASVKDEELKRRVAEELAL | 2.46
YSGAYGASVFDEELKRRVAEELAL | 2.64
